Data reported in patent US20200121803A1 (published 2020).
Each block holds one binder with its values, some of them ahead of it.

Tests used:
[1] = target: T1, human CD98, endogenously expressed on Molt-4 human acute lymphoblastic leukemia cells (human); assay: cell-based or functional assay
T1 chain: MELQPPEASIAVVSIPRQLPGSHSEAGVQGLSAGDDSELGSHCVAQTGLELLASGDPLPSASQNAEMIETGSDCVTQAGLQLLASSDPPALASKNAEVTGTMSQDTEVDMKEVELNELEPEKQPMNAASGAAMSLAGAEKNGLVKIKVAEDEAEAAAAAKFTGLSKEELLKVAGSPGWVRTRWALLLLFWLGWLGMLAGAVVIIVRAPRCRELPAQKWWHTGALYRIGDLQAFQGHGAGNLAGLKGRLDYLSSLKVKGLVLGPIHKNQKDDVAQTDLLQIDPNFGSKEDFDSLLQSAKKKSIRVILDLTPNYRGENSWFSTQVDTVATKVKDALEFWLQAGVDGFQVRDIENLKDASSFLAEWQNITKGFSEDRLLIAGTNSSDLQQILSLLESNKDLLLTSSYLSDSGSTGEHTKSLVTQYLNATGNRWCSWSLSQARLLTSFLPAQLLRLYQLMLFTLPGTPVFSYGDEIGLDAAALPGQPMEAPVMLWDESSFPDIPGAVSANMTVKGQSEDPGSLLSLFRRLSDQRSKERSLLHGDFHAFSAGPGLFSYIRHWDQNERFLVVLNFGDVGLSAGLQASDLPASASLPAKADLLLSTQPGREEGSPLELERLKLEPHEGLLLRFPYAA

[2] = target: T2, Human CD98, endogenous on HCC38, Molt-4 and Jurkat human cancer cells (human); assay: cell-based or functional assay
T2 chain: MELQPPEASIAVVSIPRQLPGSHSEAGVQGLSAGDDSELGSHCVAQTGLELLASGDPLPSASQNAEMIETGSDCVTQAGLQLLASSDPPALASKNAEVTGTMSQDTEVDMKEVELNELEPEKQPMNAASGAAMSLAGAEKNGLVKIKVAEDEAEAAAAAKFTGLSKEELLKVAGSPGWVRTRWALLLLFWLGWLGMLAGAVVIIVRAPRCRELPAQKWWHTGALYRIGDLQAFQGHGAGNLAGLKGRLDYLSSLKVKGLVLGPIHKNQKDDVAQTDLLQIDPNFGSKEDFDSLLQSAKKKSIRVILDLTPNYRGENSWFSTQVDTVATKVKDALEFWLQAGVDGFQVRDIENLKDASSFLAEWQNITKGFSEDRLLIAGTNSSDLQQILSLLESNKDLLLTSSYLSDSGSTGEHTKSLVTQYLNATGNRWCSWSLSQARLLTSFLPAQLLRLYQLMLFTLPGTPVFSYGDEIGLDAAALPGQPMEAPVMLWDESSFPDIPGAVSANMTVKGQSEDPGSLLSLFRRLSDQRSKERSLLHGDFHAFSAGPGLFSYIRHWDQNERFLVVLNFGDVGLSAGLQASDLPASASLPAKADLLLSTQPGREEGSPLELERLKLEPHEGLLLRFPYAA

B5: Ab9-CZ (Ab9 conjugated to Bcl-xL inhibitor synthon CZ) (antibody, V domains shown)
VH: QVQLKESGPGLVQPSQTLSLTCAVSGFSLSNYGVIWVRQPPGKGLEWMAVIWTNGNTNYNSTLKSRLSISRDTSKSQVYLKMNSLQTEDTATYYCARHYYDGTYYYGYFDYWGQGVMVTVSS
VL: DIVMTQTPSSQAVSAGEKVTMSCKSSQSLLYTENKKNYLAWYQQKPGQSPKLLIYWASTRESGVPDRFMGSGSGTDFTLTISSVQAEDLAVYYCQQYYYFPYMFGAGTKLELK
ADC potency, IC50 (nM), HCC38 growth inhibition [2]: 1.09 nM
ADC potency, IC50 (nM), Jurkat growth inhibition [2]: 0.092 nM
ADC potency, IC50 (nM), Molt-4 growth inhibition [2]: 0.03 nM

B6: Ab10-CZ (Ab10 conjugated to Bcl-xL inhibitor synthon CZ) (antibody, V domains shown)
VH: EVQLVESGGGLVQPGRSLKLSCAASGFTFSDYAMAWVRQAPKKSLEWVATIIYDGRGTYCRDSVKGRFTISRDNAKSTLYLQMDSLRSEDTATYYCARQGDGTYHYWGYFDYWGQGVMVTVSS
VL: DIVMTQSPSSLAVSAGETVTINCKSSQSLLSSGNQKNYLAWYQQKPGQSPKLLIYWASTRQSGVPDRFIGSGSGTDFTLTISSVQAEDLAIYYCQQYYDTPYTFGAGTKVDLK
ADC potency, IC50 (nM), HCC38 growth inhibition [2]: 1.16 nM
ADC potency, IC50 (nM), Jurkat growth inhibition [2]: 0.148 nM
ADC potency, IC50 (nM), Molt-4 growth inhibition [2]: 0.047 nM

B7: Ab11-CZ (Ab11 conjugated to Bcl-xL inhibitor synthon CZ) (antibody, V domains shown)
VH: EVQLVESGGGLVQPGRSLKLSCAASGFTFSDYAMAWVRQAPKKGLEWVAGIIYDGRGTYYRDSVKGRFTISRDNAKSTLYLQMDSLRSEDTATYYCARQGDGTYYYWGYFDYWGQGVMVTVSS
VL: DIVMTQSPSSLAVSAGETVTINCRSSQSLLSSGNQKNYLAWYQQKPGQSPKLLIYWASTRQSGVPDRFIGSGSGTDFTLTISSVQAEDLAIYYCQQYYDTPYTFGAGTKLELK
ADC potency, IC50 (nM), HCC38 growth inhibition [2]: 1.14 nM
ADC potency, IC50 (nM), Jurkat growth inhibition [2]: 0.311 nM
ADC potency, IC50 (nM), Molt-4 growth inhibition [2]: 0.279 nM

B8: Ab12-CZ (Ab12 conjugated to Bcl-xL inhibitor synthon CZ) (antibody, V domains shown)
VH: EVQLVESGGGLVQPGRSLKLSCAASGFTFSDYAMAWVRQAPKKGLEWVASIIYDGRGTYYRDSVKGRFTISRDNAKSTLYLQMDSLRSEDTATYYCARQGDGTYYYWGSFDYWGQGVMVTVSS
VL: DIVMTQSPSSLAVSAGETVTINCKSSQSLLSSGNQKNYLAWYQQKPGQSPKLLIYWASTRQSGVPDRFIGSGSGTDFTLTISSVQAEDLAIYHCQQYYDTPYTFGAGTKLELK
ADC potency, IC50 (nM), HCC38 growth inhibition [2]: 0.685 nM
ADC potency, IC50 (nM), Jurkat growth inhibition [2]: 0.094 nM
ADC potency, IC50 (nM), Molt-4 growth inhibition [2]: 0.087 nM

B9: Ab13-CZ (Ab13 conjugated to Bcl-xL inhibitor synthon CZ) (antibody, V domains shown)
VH: QVQLKESGPGLVQPSQTLSLTCTVSGFSLSSYGVIWVRQPPGKGLEWMGIIWANGNTNYNSALKSRLSISRDTSKSQVYLKMNSLQTEDTATYYCARHYYDGTHYYGYFDYWGQGVMVTVSS
VL: DTVMTQTPSSQAVSAGEKVTMSCKSSQSLLYSENKKKYLAWYQQKPGQSPKLLIYWASTRESGVPDRFIGSGSGTDFTLTISSVQAEDLAVYYCQQYYNFPYTFGAGTKLELK
ADC potency, IC50 (nM), HCC38 growth inhibition [2]: 0.787 nM
ADC potency, IC50 (nM), Jurkat growth inhibition [2]: 0.149 nM
ADC potency, IC50 (nM), Molt-4 growth inhibition [2]: 0.38 nM

B10: Ab2-CZ (Ab2 conjugated to Bcl-xL inhibitor synthon CZ) (antibody, V domains shown)
VH: EVKLVESGGGLVQPGGSLRLSCATSGFNFTDYYMSWVRQPPGKALEWLGFIRNKANGYTTEYSASVKGRFTISRDDSQSILYLQMNTLRAEDSATYYCARASYGNSEGWFAYWGQGTLVTVSA
VL: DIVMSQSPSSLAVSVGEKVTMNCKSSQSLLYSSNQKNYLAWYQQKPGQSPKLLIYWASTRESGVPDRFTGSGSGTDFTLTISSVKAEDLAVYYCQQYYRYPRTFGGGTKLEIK
ADC potency, IC50 (nM), HCC38 growth inhibition [2]: 0.791 nM
ADC potency, IC50 (nM), Jurkat growth inhibition [2]: 0.065 nM
ADC potency, IC50 (nM), Molt-4 growth inhibition [2]: 0.05 nM

B11: Ab14-CZ (Ab14 conjugated to Bcl-xL inhibitor synthon CZ) (antibody, V domains shown)
VH: EVKLQQSGDELVRPGASVKISCKASGYTFTSYSMHWVKERPGQGLEWIGAIFPIIGTTEYNQKFKGKATLTADKSSNTANMELSRLTSEDSAVYYCARVYLSYFDYWGQGVMVTVSS
VL: DIQMTQSPSFLSASVGDRVTINCKASQNINKYLDWYQRKHGEAPKLLIYNTNNLQTGIPSRFSGSGSGTDYTLTISSLQPEDVATYFCLQHSSRYTFGAGTKLELK
ADC potency, IC50 (nM), HCC38 growth inhibition [2]: 0.798 nM
ADC potency, IC50 (nM), Jurkat growth inhibition [2]: 0.063 nM
ADC potency, IC50 (nM), Molt-4 growth inhibition [2]: 0.025 nM

B13: Ab3-CZ (Ab3 conjugated to Bcl-xL inhibitor synthon CZ) (antibody, V domains shown)
VH: EVKLVESGGGLVQPGNSLRLSCATSGFTFIDYYMSWVRQSPGKALEWLGFIRNKANGYTTEYSASVKGRFTISRDNSQSILYLQMDTLRAEDSATYYCTRDRPAWFVYWGQGTLVTVSA
VL: DIVMSQSPSSLAVSVGEKVTMSCKSSQSLLYSSNQKNYLAWYQQKPGQSPKLLIYWASTRESGVPDRFTGSGSGTDFTLTFSSVRAEDLAVYYCQQYYSYPYTFGGGTKLEIK
ADC potency, IC50 (nM), HCC38 growth inhibition [2]: 0.561 nM
ADC potency, IC50 (nM), Jurkat growth inhibition [2]: 0.071 nM
ADC potency, IC50 (nM), Molt-4 growth inhibition [2]: 0.031 nM

The next lines start with results.

Molt4 IC50 (nM), 50% inhibition of cell proliferation, 72 h, ATPlite [1]: 0.252 nM
B1: CD98 (CL-huAb110)-ZZ (antibody, human IgG1, kappa, L234A L235A, V domains shown)
VH: EVQLVQSGAEVKKPGASVKVSCKASGFTFSDYTMAWVRQAPGQGLEWVATIIYDARGTYYRDAVKGRFTITRDNSTSTLYLELSSLRSEDTAVYYCARQSDDTYYYWGYFDYWGQGTMVTVSS
VL: DIVMTQTPLSLPVTPGEPASINCKSSQSLLFSGNQKNYLAWYLQKPGQSPQLLIYWASTRQSGVPDRFSGSGSGTDFTLKISRVEAEDVGIYYCQQYYSSPYTFGQGTKLEIKR
modifications: synthon ZZ on reduced cysteine (see heavy chain); Bcl-xL inhibitor synthon ZZ on cysteines freed by TCEP reduction (Method G); DAR 1.0 by MS for the whole ADC
% Cell Viability at 50 nM (Molt-4) [1]: 4.3%

Molt4 IC50 (nM), 50% inhibition of cell proliferation, 72 h, ATPlite [1]: 0.074 nM
B2: CD98 (CL-huAb102)-XW (antibody, human IgG1, kappa, L234A L235A, V domains shown)
VH: EVQLVESGGGLVQPGGSLRLSCATSGFTFIDYYMSWVRQAPGKGLEWLGFIRNKANRYTTEYSASVKGRFTISRDNSKSILYLQMNSLKTEDTAVYYCTRDRPAWFVYWGQGTLVTVSS
VL: DIVMTQTPLSLPVTPGEPASISCKSSQSLLYSSNQKNYLAWYLQKPGQSPQLLIYWASTRESGVPDRFSGSGSGTDFTLKISRVEAEDVGVYYCQQYYSYPYTFGGGTKVEIKR
modifications: synthon XW on reduced cysteine (see heavy chain); Bcl-xL inhibitor synthon XW on cysteines freed by TCEP reduction (Method G); DAR 2.8 by MS for the whole ADC
% Cell Viability at 50 nM (Molt-4) [1]: 32%

Molt4 IC50 (nM), 50% inhibition of cell proliferation, 72 h, ATPlite [1]: 0.102 nM
B3: CD98 (CL-huAb104)-XW (antibody, human IgG1, kappa, L234A L235A, V domains shown)
VH: EVQLVESGGGLVQPGGSLRLSCATSGFTFIDYYMSWVRQAPGKGLEWLGFIRNKAYGYTTEYSASVKGRFTISRDNSKSILYLQMNSLKTEDTAVYYCTRDRPAWFVYWGQGTLVTVSS
VL: DIVMTQTPLSLPVTPGEPASISCKSSQSLLYSSNQKNYLAWYLQKPGQSPQLLIYWASTRESGVPDRFSGSGSGTDFTLKISRVEAEDVGVYYCQQYYSYPYTFGGGTKVEIKR
modifications: synthon XW on reduced cysteine (see heavy chain); Bcl-xL inhibitor synthon XW on cysteines freed by TCEP reduction (Method G); DAR 3.1 by MS for the whole ADC
% Cell Viability at 50 nM (Molt-4) [1]: 31.1%

Molt4 IC50 (nM), 50% inhibition of cell proliferation, 72 h, ATPlite [1]: 0.281 nM
B4: CD98 (CL-huAb108)-XW (antibody, human IgG1, kappa, L234A L235A, V domains shown)
VH: EVQLVQSGAEVKKPGASVKVSCKASGFTFSDYTMAWVRQAPGQGLEWVATIIYSGRGTYYRDAVKGRFTITRDNSTSTLYLELSSLRSEDTAVYYCARQSDDTYYYWGYFDYWGQGTMVTVSS
VL: DIVMTQTPLSLPVTPGEPASINCKSSQSLLFSGNQKNYLAWYLQKPGQSPQLLIYWASTRQSGVPDRFSGSGSGTDFTLKISRVEAEDVGIYYCQQYYDVPYTFGQGTKLEIKR
modifications: synthon XW on reduced cysteine (see heavy chain); Bcl-xL inhibitor synthon XW on cysteines freed by TCEP reduction (Method G); DAR 3.5 by MS for the whole ADC
% Cell Viability at 50 nM (Molt-4) [1]: 20.9%

ADC potency, IC50 (nM), HCC38 growth inhibition [2]: 1.06 nM
ADC potency, IC50 (nM), Jurkat growth inhibition [2]: 0.076 nM
ADC potency, IC50 (nM), Molt-4 growth inhibition [2]: 0.071 nM
B12: Ab15-CZ (Ab15 conjugated to Bcl-xL inhibitor synthon CZ) (antibody, V domains shown)
VH: EVQLVESGGGLVQPGRSLKLSCAASGFTFSDYTMAWVRQAPKKGLEWVATIIYDGRGTYYRDSVKGRFTISRDNAKSTLYLQMDSLRSEDTATYYCARQSDGTYYYWGYFDYWGQGVMVTVSS
VL: DIVMTQSPSSLAVSAGETVTINCKSSQSLLFSGNQKNYLAWYQQKPGQSPKLLIYWASTRQSGVPDRFIGSGSGTDFTLTIRSVQAEDLAIYYCQQYYDSPYTFGAGTKLELK
